{
  "source": "paper PMC4234381",
  "about": "“Evolution of Acyl-Substrate Recognition by a Family of Acyl-Homoserine Lactone Synthases” (PLoS ONE, 2014)",
  "key": {"BjaI": {"target": "BjaI (Bradyrhizobium diazoefficiens, UniProt Q89VI2)", "experiment": "DCPIP microplate assay"}, "Sfp": {"target": "Sfp (Bacillus subtilis, UniProt P39135)", "sequence (P39135 whole entry)": "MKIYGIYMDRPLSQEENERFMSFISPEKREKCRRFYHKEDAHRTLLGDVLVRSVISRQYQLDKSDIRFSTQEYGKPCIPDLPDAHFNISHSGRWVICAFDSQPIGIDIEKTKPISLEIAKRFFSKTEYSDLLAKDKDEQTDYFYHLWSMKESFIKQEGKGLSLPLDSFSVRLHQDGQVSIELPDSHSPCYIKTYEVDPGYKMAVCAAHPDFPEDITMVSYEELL", "experiment": "enzymatic transfer of octyl-phosphopantetheine to apo-ACP, mass spectrum of product", "assay_type": "biochemical", "conditions": "co-substrate E. coli apo-AcpP; preparative synthesis, 20:1 acyl-CoA to ACP"}, "purified protein [1]": {"substrate": "CC(C)CC(=O)SCCNC(=O)CCNC(=O)[C@H](O)C(C)(C)COP(=O)(O)OP(=O)(O)OC[C@H]1O[C@@H](n2cnc3c(N)ncnc32)[C@H](O)[C@@H]1OP(=O)(O)O", "experiment": "purified protein", "conditions": "500 µM SAM, 1 µM BjaI, HEPES, final pH 7.3"}, "purified protein [2]": {"substrate": "C[S+](CC[C@H](N)C(=O)O)C[C@H]1O[C@@H](n2cnc3c(N)ncnc32)[C@H](O)[C@@H]1O", "experiment": "purified protein", "conditions": "250 µM isovaleryl-CoA, HEPES, final pH 7.3"}},
  "data": [
    {"molecule": "CC(C)CCSCCNC(=O)CCNC(=O)[C@H](O)C(C)(C)COP(=O)(O)OP(=O)(O)OC[C@H]1O[C@@H](n2cnc3c(N)ncnc32)[C@H](O)[C@@H]1OP(=O)(O)O", "note": "[isopentyl-CoA]", "values": [
      {"measurement": "Ki", "setting": "BjaI", "result": "21 ± 1", "unit": "µM"}
    ]},
    {"molecule": "CCCCCCCCSCCNC(=O)CCNC(=O)[C@H](O)C(C)(C)COP(=O)(O)OP(=O)(O)OC[C@H]1O[C@@H](n2cnc3c(N)ncnc32)[C@H](O)[C@@H]1OP(=O)(O)O", "note": "[octyl-CoA sulfide]", "values": [
      {"measurement": "enzymatic transfer of octyl-phosphopantetheine to apo-ACP, mass spectrum of prod", "setting": "Sfp", "result": "enzymatic transfer of the alkyl-PPant to apo-ACP using Bacillus subtilis Sfp PPant transferase"}
    ]},
    {"molecule": "BjaI (Bradyrhizobium diazoefficiens USDA 110) (protein) MIHAISAVNRHLYEDVLEQHFRLRHDIFVEERHWETLRRPDGREVDSYDDEDTVYLLALEGRRVVGGHRLYPTTKPSMMSEVFPHLAAVRGCPSDPLIWEWSRYFVVRDRRDGALNLQLMAAVQEFCLDQGIAQVSAIMETWWLPRFHEAGFVVTPLGLPALVENAWTMAATVDIRRQTLDVLHDRIGMPSIVQQDGPRLDAVARANLCGLAAAQRKSA", "values": [
      {"measurement": "Km", "setting": "purified protein [1]", "result": "7.0 ± 0.5", "unit": "µM"},
      {"measurement": "kcat", "setting": "purified protein [1]", "result": "0.021 ± 0.03", "unit": "s⁻¹"},
      {"measurement": "kcat/Km", "setting": "purified protein [1]", "result": 3000, "unit": "M⁻¹ s⁻¹"},
      {"measurement": "Km", "setting": "purified protein [2]", "result": "39 ± 4", "unit": "µM"}
    ]}
  ]
}
